Measurements from patent US11653679B2, “High-purity steviol glycosides” (PureCircle Sdn Bhd, priority 2014, dated 2023).

B1: UGT76G1var18: UGT76G1 variant, mutations L243P_S274G_N409R (protein, UniProt Q6VAB4 1-458, looked up, variant L243P S274G N409R)
UDP-glycosyltransferase 76G1: MENKTETTVRRRRRIILFPVPFQGHINPILQLANVLYSKGFSITIFHTNFNKPKTSNYPHFTFRFILDNDPQDERISNLPTHGPLAGMRIPIINEHGADELRRELELLMLASEEDEEVSCLITDALWYFAQSVADSLNLRRLVLMTSSLFNFHAHVSLPQFDELGYLDPDDKTRLEEQASGFPMLKVKDIKSAYSNWQILKEILGKMIKQTKASSGVIWNSFKELEESELETVIREIPAPSFPIPLPKHLTASSSSLLDHDRTVFQWLDQQPPGSVLYVSFGSTSEVDEKDFLEIARGLVDSKQSFLWVVRPGFVKGSTWVEPLPDGFLGERGRIVKWVPQQEVLAHGAIGAFWTHSGWNSTLESVCEGVPMIFSDFGLDQPLNARYMSDVLKVGVYLENGWERGEIARAIRRVMVDEEGEYIRQNARVLKQKADVSLMKGGSSYESLESLVSYISSL
B2: UGT76G1var22: UGT76G1 variant, mutations E231A_V310I_R334K (protein, UniProt Q6VAB4 1-458, looked up, variant E231A V310I R334K)
UDP-glycosyltransferase 76G1: MENKTETTVRRRRRIILFPVPFQGHINPILQLANVLYSKGFSITIFHTNFNKPKTSNYPHFTFRFILDNDPQDERISNLPTHGPLAGMRIPIINEHGADELRRELELLMLASEEDEEVSCLITDALWYFAQSVADSLNLRRLVLMTSSLFNFHAHVSLPQFDELGYLDPDDKTRLEEQASGFPMLKVKDIKSAYSNWQILKEILGKMIKQTKASSGVIWNSFKELEESELATVIREIPAPSFLIPLPKHLTASSSSLLDHDRTVFQWLDQQPPSSVLYVSFGSTSEVDEKDFLEIARGLVDSKQSFLWVIRPGFVKGSTWVEPLPDGFLGERGKIVKWVPQQEVLAHGAIGAFWTHSGWNSTLESVCEGVPMIFSDFGLDQPLNARYMSDVLKVGVYLENGWERGEIANAIRRVMVDEEGEYIRQNARVLKQKADVSLMKGGSSYESLESLVSYISSL
B3: UGT76G1var20: UGT76G1 variant, mutations S375M_K393G_Y397E (protein, UniProt Q6VAB4 1-458, looked up, variant S375M K393G Y397E)
UDP-glycosyltransferase 76G1: MENKTETTVRRRRRIILFPVPFQGHINPILQLANVLYSKGFSITIFHTNFNKPKTSNYPHFTFRFILDNDPQDERISNLPTHGPLAGMRIPIINEHGADELRRELELLMLASEEDEEVSCLITDALWYFAQSVADSLNLRRLVLMTSSLFNFHAHVSLPQFDELGYLDPDDKTRLEEQASGFPMLKVKDIKSAYSNWQILKEILGKMIKQTKASSGVIWNSFKELEESELETVIREIPAPSFLIPLPKHLTASSSSLLDHDRTVFQWLDQQPPSSVLYVSFGSTSEVDEKDFLEIARGLVDSKQSFLWVVRPGFVKGSTWVEPLPDGFLGERGRIVKWVPQQEVLAHGAIGAFWTHSGWNSTLESVCEGVPMIFMDFGLDQPLNARYMSDVLGVGVELENGWERGEIANAIRRVMVDEEGEYIRQNARVLKQKADVSLMKGGSSYESLESLVSYISSL
B4: UGT76G1var27: UGT76G1 variant, mutations A239I_L379A_V394I (protein, UniProt Q6VAB4 1-458, looked up, variant A239I L379A V394I)
UDP-glycosyltransferase 76G1: MENKTETTVRRRRRIILFPVPFQGHINPILQLANVLYSKGFSITIFHTNFNKPKTSNYPHFTFRFILDNDPQDERISNLPTHGPLAGMRIPIINEHGADELRRELELLMLASEEDEEVSCLITDALWYFAQSVADSLNLRRLVLMTSSLFNFHAHVSLPQFDELGYLDPDDKTRLEEQASGFPMLKVKDIKSAYSNWQILKEILGKMIKQTKASSGVIWNSFKELEESELETVIREIPIPSFLIPLPKHLTASSSSLLDHDRTVFQWLDQQPPSSVLYVSFGSTSEVDEKDFLEIARGLVDSKQSFLWVVRPGFVKGSTWVEPLPDGFLGERGRIVKWVPQQEVLAHGAIGAFWTHSGWNSTLESVCEGVPMIFSDFGADQPLNARYMSDVLKIGVYLENGWERGEIANAIRRVMVDEEGEYIRQNARVLKQKADVSLMKGGSSYESLESLVSYISSL
B5: UGT76G1var24: UGT76G1 variant, mutations A239I_P272A_Q425E (protein, UniProt Q6VAB4 1-458, looked up, variant A239I P272A Q425E)
UDP-glycosyltransferase 76G1: MENKTETTVRRRRRIILFPVPFQGHINPILQLANVLYSKGFSITIFHTNFNKPKTSNYPHFTFRFILDNDPQDERISNLPTHGPLAGMRIPIINEHGADELRRELELLMLASEEDEEVSCLITDALWYFAQSVADSLNLRRLVLMTSSLFNFHAHVSLPQFDELGYLDPDDKTRLEEQASGFPMLKVKDIKSAYSNWQILKEILGKMIKQTKASSGVIWNSFKELEESELETVIREIPIPSFLIPLPKHLTASSSSLLDHDRTVFQWLDQQAPSSVLYVSFGSTSEVDEKDFLEIARGLVDSKQSFLWVVRPGFVKGSTWVEPLPDGFLGERGRIVKWVPQQEVLAHGAIGAFWTHSGWNSTLESVCEGVPMIFSDFGLDQPLNARYMSDVLKVGVYLENGWERGEIANAIRRVMVDEEGEYIRENARVLKQKADVSLMKGGSSYESLESLVSYISSL
B6: UGT76G1var26: UGT76G1 variant, mutations S241I_F265L_F377C (protein, UniProt Q6VAB4 1-458, looked up, variant S241I F265L F377C)
UDP-glycosyltransferase 76G1: MENKTETTVRRRRRIILFPVPFQGHINPILQLANVLYSKGFSITIFHTNFNKPKTSNYPHFTFRFILDNDPQDERISNLPTHGPLAGMRIPIINEHGADELRRELELLMLASEEDEEVSCLITDALWYFAQSVADSLNLRRLVLMTSSLFNFHAHVSLPQFDELGYLDPDDKTRLEEQASGFPMLKVKDIKSAYSNWQILKEILGKMIKQTKASSGVIWNSFKELEESELETVIREIPAPIFLIPLPKHLTASSSSLLDHDRTVLQWLDQQPPSSVLYVSFGSTSEVDEKDFLEIARGLVDSKQSFLWVVRPGFVKGSTWVEPLPDGFLGERGRIVKWVPQQEVLAHGAIGAFWTHSGWNSTLESVCEGVPMIFSDCGLDQPLNARYMSDVLKVGVYLENGWERGEIANAIRRVMVDEEGEYIRQNARVLKQKADVSLMKGGSSYESLESLVSYISSL
B7: UGT76G1var23: UGT76G1 variant, mutations T263S_G348P_A352G (protein, UniProt Q6VAB4 1-458, looked up, variant T263S G348P A352G)
UDP-glycosyltransferase 76G1: MENKTETTVRRRRRIILFPVPFQGHINPILQLANVLYSKGFSITIFHTNFNKPKTSNYPHFTFRFILDNDPQDERISNLPTHGPLAGMRIPIINEHGADELRRELELLMLASEEDEEVSCLITDALWYFAQSVADSLNLRRLVLMTSSLFNFHAHVSLPQFDELGYLDPDDKTRLEEQASGFPMLKVKDIKSAYSNWQILKEILGKMIKQTKASSGVIWNSFKELEESELETVIREIPAPSFLIPLPKHLTASSSSLLDHDRSVFQWLDQQPPSSVLYVSFGSTSEVDEKDFLEIARGLVDSKQSFLWVVRPGFVKGSTWVEPLPDGFLGERGRIVKWVPQQEVLAHPAIGGFWTHSGWNSTLESVCEGVPMIFSDFGLDQPLNARYMSDVLKVGVYLENGWERGEIANAIRRVMVDEEGEYIRQNARVLKQKADVSLMKGGSSYESLESLVSYISSL
B8: UGT76G1var19: UGT76G1 variant, mutations E224D_E229A_Q432E (protein, UniProt Q6VAB4 1-458, looked up, variant E224D E229A Q432E)
UDP-glycosyltransferase 76G1: MENKTETTVRRRRRIILFPVPFQGHINPILQLANVLYSKGFSITIFHTNFNKPKTSNYPHFTFRFILDNDPQDERISNLPTHGPLAGMRIPIINEHGADELRRELELLMLASEEDEEVSCLITDALWYFAQSVADSLNLRRLVLMTSSLFNFHAHVSLPQFDELGYLDPDDKTRLEEQASGFPMLKVKDIKSAYSNWQILKEILGKMIKQTKASSGVIWNSFKDLEESALETVIREIPAPSFLIPLPKHLTASSSSLLDHDRTVFQWLDQQPPSSVLYVSFGSTSEVDEKDFLEIARGLVDSKQSFLWVVRPGFVKGSTWVEPLPDGFLGERGRIVKWVPQQEVLAHGAIGAFWTHSGWNSTLESVCEGVPMIFSDFGLDQPLNARYMSDVLKVGVYLENGWERGEIANAIRRVMVDEEGEYIRQNARVLKEKADVSLMKGGSSYESLESLVSYISSL
B9: UGT76G1var21: UGT76G1 variant, mutations A239V_V300A_K303G (protein, UniProt Q6VAB4 1-458, looked up, variant A239V V300A K303G)
UDP-glycosyltransferase 76G1: MENKTETTVRRRRRIILFPVPFQGHINPILQLANVLYSKGFSITIFHTNFNKPKTSNYPHFTFRFILDNDPQDERISNLPTHGPLAGMRIPIINEHGADELRRELELLMLASEEDEEVSCLITDALWYFAQSVADSLNLRRLVLMTSSLFNFHAHVSLPQFDELGYLDPDDKTRLEEQASGFPMLKVKDIKSAYSNWQILKEILGKMIKQTKASSGVIWNSFKELEESELETVIREIPVPSFLIPLPKHLTASSSSLLDHDRTVFQWLDQQPPSSVLYVSFGSTSEVDEKDFLEIARGLADSGQSFLWVVRPGFVKGSTWVEPLPDGFLGERGRIVKWVPQQEVLAHGAIGAFWTHSGWNSTLESVCEGVPMIFSDFGLDQPLNARYMSDVLKVGVYLENGWERGEIANAIRRVMVDEEGEYIRQNARVLKQKADVSLMKGGSSYESLESLVSYISSL
B10: UGT76G1var25: UGT76G1 variant, mutations T284L_Q342K_Y397Q (protein, UniProt Q6VAB4 1-458, looked up, variant T284L Q342K Y397Q)
UDP-glycosyltransferase 76G1: MENKTETTVRRRRRIILFPVPFQGHINPILQLANVLYSKGFSITIFHTNFNKPKTSNYPHFTFRFILDNDPQDERISNLPTHGPLAGMRIPIINEHGADELRRELELLMLASEEDEEVSCLITDALWYFAQSVADSLNLRRLVLMTSSLFNFHAHVSLPQFDELGYLDPDDKTRLEEQASGFPMLKVKDIKSAYSNWQILKEILGKMIKQTKASSGVIWNSFKELEESELETVIREIPAPSFLIPLPKHLTASSSSLLDHDRTVFQWLDQQPPSSVLYVSFGSLSEVDEKDFLEIARGLVDSKQSFLWVVRPGFVKGSTWVEPLPDGFLGERGRIVKWVPQKEVLAHGAIGAFWTHSGWNSTLESVCEGVPMIFSDFGLDQPLNARYMSDVLKVGVQLENGWERGEIANAIRRVMVDEEGEYIRQNARVLKQKADVSLMKGGSSYESLESLVSYISSL

Assay: Directed evolution of UGT76G1, Rebaudioside D to Rebaudioside M, round 1 (Example 26)
Format: biochemical
Conditions: 100 μL fresh lysate, 0.5 mM Rebaudioside D, 30° C., pH 7.2
Description: Lysis was performed by addition of Bugbuster® Master mix (Novagen®) to the thawed cells and the lysate was recovered by centrifugation. Activity tests were performed with 100 μL of fresh lysate that was added to a solution of Rebaudioside D (final concentration 0.5 mM), MgCl2 (final concentration 3 mM) and UDP-Glucose (final concentration 2.5 mM) in 50 mM phosphate buffer pH 7.2.
The reaction was allowed to run at 30° C. and samples were taken after 2, 4, 7 and 24 h. to determine conversion and initial rate by HPLC (CAD detection) using the analytical method that was described above for the transformation of Rebaudioside D to Rebaudioside M. The results are depicted in the following table.

Molecule	conversion Reb D to Reb M after 24 h	initial rate
B1	1.9%	5.0E+05 Reb M area/min
B2		2.4E+07 Reb M area/min
B3	1.8%	1.9E+06 Reb M area/min
B4	29.0%	1.5E+07 Reb M area/min
B5	31.0%	2.1E+07 Reb M area/min
B6	1.8%	7.5E+05 Reb M area/min
B7		4.1E+07 Reb M area/min
B8		5.5E+06 Reb M area/min
B9		3.3E+07 Reb M area/min
B10	0.9%	6.3E+04 Reb M area/min
